Source: paper PMC10542384

B1: HA-RNF111 wild type (HA-RNF111^WT) in RNF111 KO U2OS cells [not stated] / Arkadia-like 1 (ARKL1) [human (endogenous in U2OS)] (parent)
chain 1: MSQWTPEYNELYTLKVDMKSEIPSDAPKTQESLKGILLHPEPIGAAKSFPAGVEMINSKVGNEFSHLCDDSQKQEKEMNGNQQEQEKSLVVRKKRKSQQAGPSYVQNCVKENQGILGLRQHLGTPSDEDNDSSFSDCLSSPSSSLHFGDSDTVTSDEDKEVSVRHSQTILNAKSRSHSARSHKWPRTETESVSGLLMKRPCLHGSSLRRLPCRKRFVKNNSSQRTQKQKERILMQRKKREVLARRKYALLPSSSSSSENDLSSESSSSSSTEGEEDLFVSASENHQNNPAVPSGSIDEDVVVIEASSTPQVTANEEINVTSTDSEVEIVTVGESYRSRSTLGHSRSHWSQGSSSHASRPQEPRNRSRISTVIQPLRQNAAEVVDLTVDEDEPTVVPTTSARMESQATSASINNSNPSTSEQASDTASAVTSSQPSTVSETSATLTSNSTTGTSIGDDSRRTTSSAVTETGPPAMPRLPSCCPQHSPCGGSSQNHHALGHPHTSCFQQHGHHFQHHHHHHHTPHPAVPVSPSFSDPACPVERPPQVQAPCGANSSSGTSYHEQQALPVDLSNSGIRSHGSGSFHGASAFDPCCPVSSSRAAIFGHQAAAAAPSQPLSSIDGYGSSMVAQPQPQPPPQPSLSSCRHYMPPPYASLTRPLHHQASACPHSHGNPPPQTQPPPQVDYVIPHPVHAFHSQISSHATSHPVAPPPPTHLASTAAPIPQHLPPTHQPISHHIPATAPPAQRLHPHEVMQRMEVQRRRMMQHPTRAHERPPPHPHRMHPNYGHGHHIHVPQTMSSHPRQAPERSAWELGIEAGVTAATYTPGALHPHLAHYHAPPRLHHLQLGALPLMVPDMAGYPHIRYISSGLDGTSFRGPFRGNFEELIHLEERLGNVNRGASQGTIERCTYPHKYKKVTTDWFSQRKLHCKQDGEEGTEEDTEEKCTICLSILEEGEDVRRLPCMHLFHQVCVDQWLITNKKCPICRVDIEAQLPSES
chain 2: MKMEEAVGKVEELIESEAPPKASEQETAKEEDGSVELESQVQKDGVADSTVISSMPCLLMELRRDSSESQLASTESDKPTTGRVYESDSSNHCMLSPSSSGHLADSDTLSSAEENEPSQAETAVEGDPSGVSGATVGRKSRRSRSESETSTMAAKKNRQSSDKQNGRVAKVKGHRSQKHKERIRLLRQKREAAARKKYNLLQDSSTSDSDLTCDSSTSSSDDDEEVSGSSKTITAEIPDGPPVVAHYDMSDTNSDPEVVNVDNLLAAAVVQEHSNSVGGQDTGATWRTSGLLEELNAEAGHLDPGFLASDKTSAGNAPLNEEINIASSDSEVEIVGVQEHARCVHPRGGVIQSVSSWKHGSGTQYVSTRQTQSWTAVTPQQTWASPAEVVDLTLDEDSRRKYLL

Variants of: B1
Assay: proximity ligation assay (PLA)
Conditions: with Arkadia-like 1 (ARKL1) [human (endogenous in U2OS)]; RNF111 KO U2OS cells complemented with vector (n = 19), HA-RNF111WT (n = 18), HA-RNF111 K237/238R (n = 28); antibodies to HA and ARKL1; parent: 7.5; read off a plot

chain 1 K237R K238R was tested. Which response (PLA foci per cell) did it give?
The response (PLA foci per cell) was 3.2.
